The values below come from patent publication US20240343803A1 (SHANDONG SIMCERE BIOPHARMACEUTICAL, published 2024).

Positions count from the first letter of the chain named.

To fix the notation:
B1: PVRIG-A118-H3 (Fc fusion)
chain: EVQLVESGGGLVQPGGSLRLSCAASETYFDLYVMGWYRQAPGKDRELVATITYTGSIKYVDSVKGRFTISRGDAKNSLYLQMNSLRAEDTAVYYCNADPSGLGRKVYWGQGTMVTVSS
notes: VHH-human IgG1 Fc format is stated for the parental VHH antibodies; not restated for the humanized variants; also called A118.VH3; not shown: human IgG1 hinge-CH2-CH3 (Fc)
B2: PVRIG-A118 (Fc fusion)
chain: QVQLVESGGGLVQAGGSLRLSCAASETYFDLYVMGWYRQAPGKDRELVATITYTGSIKIVDSVKDRFTISRGDAKNTVSLQMSSLKPEDTAVYFCNADPSGLGRKVYWGQGTQVTVSS
notes: Alpaca VHH expressed as VHH-hinge-CH2-CH3 of human IgG1; not shown: human IgG1 hinge-CH2-CH3 (Fc)
B3: PVRIG-A50-H1 (Fc fusion)
chain: EVQLVESGGGLVQPGGSLRLSCAASGFTFSYYDMSWVRQAPGKGLEWVSTINSNGGRTSYVDSVKGRFTISRDNSKNTLYLQMNSLRAEDTAVYYCVEGDPHNFGLENLSLRDFGSWGQGTMVTVSS
notes: VHH-human IgG1 Fc format is stated for the parental VHH antibodies; not restated for the humanized variants; also called A50.VH1; not shown: human IgG1 hinge-CH2-CH3 (Fc)
B4: PVRIG-A50-H1d (Fc fusion)
chain: B3 chain with N108S
notes: VHH-human IgG1 Fc format is stated for the parental VHH antibodies; not restated for the humanized variants; also called A50.VH1d; not shown: human IgG1 hinge-CH2-CH3 (Fc)
B5: PVRIG-A50-H1e (Fc fusion)
chain: B3 chain with G55A, N108S
notes: VHH-human IgG1 Fc format is stated for the parental VHH antibodies; not restated for the humanized variants; also called VH1e; not shown: human IgG1 hinge-CH2-CH3 (Fc)
B6: PVRIG-A50-H2a (Fc fusion)
chain: B3 chain with G55A, S75T, N108S
notes: VHH-human IgG1 Fc format is stated for the parental VHH antibodies; not restated for the humanized variants; also called A50.VH2a; not shown: human IgG1 hinge-CH2-CH3 (Fc)
B7: PVRIG-A50 (Fc fusion)
chain: B3 chain with S75T, R87K, A88P, M122Q
notes: Alpaca VHH expressed as VHH-hinge-CH2-CH3 of human IgG1 (heavy-chain antibody); also called PVRIG-50; not shown: human IgG1 hinge-CH2-CH3 (Fc)
B8: PVRIG-A50-H1a (Fc fusion)
chain: B3 chain with N54D
notes: VHH-human IgG1 Fc format is stated for the parental VHH antibodies; not restated for the humanized variants; also called A50.VH1a; not shown: human IgG1 hinge-CH2-CH3 (Fc)
B9: PVRIG-A50-H1c (Fc fusion)
chain: B3 chain with N54D, S110A
notes: VHH-human IgG1 Fc format is stated for the parental VHH antibodies; not restated for the humanized variants; also called A50.VH1c; not shown: human IgG1 hinge-CH2-CH3 (Fc)

For this assay, the target named is T1, human PVRIG-mFc protein (Acro, PVG-H5253) (human, UniProt Q6DKI7 41-171, limits assumed).
T1 construct: extracellular domain; Bought protein; also called PVRIG-ECD-mFc; not shown: mouse Fc tag of the bought protein
T1 sequence (looked up): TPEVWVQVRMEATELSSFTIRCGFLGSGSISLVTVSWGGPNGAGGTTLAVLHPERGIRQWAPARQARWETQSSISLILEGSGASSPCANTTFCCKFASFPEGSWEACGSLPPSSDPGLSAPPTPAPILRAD
Briefly: FACS blocking of PVRIG-mFc binding to CHO-K1-CD112 cells; competitor CD112. The gist of the method:
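Zombie violet-stained CHO-K1-CD112 cells were added for 30 min at 4° C, then PE goat anti-mouse IgG Fc (1:250) was applied and mean fluorescence intensity read on a BD Canto II. Curves were fitted with four-parameter logistic models in GraphPad Prism 9. IC50 and curve AUC were reported as percentages of the reference antibody values.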
For the molecule B1, the “% AUC to COM701-hIgG4” value was determined as 127%, the “% AUC to SO35-hIgG1” value was determined as 65.8%, the “% AUC to parental Ab” value stood at 107% and the “% IC50 to COM701-hIgG4” value amounted to 146%. Besides, the “% IC50 to SO35-hIgG1” value stood at 98.8% and the “% IC50 to parental Ab” value worked out at 104%.
On to B2, for which the “% AUC to COM701-hIgG4” value came to 119%, the “% AUC to SO35-hIgG1” value was 61.7%, the “% AUC to parental Ab” value is 100% and the “% IC50 to COM701-hIgG4” value came to 141%. Moreover, the “% IC50 to SO35-hIgG1” value stood at 95.3% and the “% IC50 to parental Ab” value was found to be 100%.
Regarding B3, the “% AUC to COM701-hIgG4” value was found to be 115%, the “% AUC to SO35-hIgG1” value is 67.8%, the “% AUC to parental Ab” value is 94% and the “% IC50 to COM701-hIgG4” value worked out at 101%. In addition, the “% IC50 to SO35-hIgG1” value was 78% and the “% IC50 to parental Ab” value amounted to 86.1%.
As for B4, the “% AUC to COM701-hIgG4” value was found to be 121%, the “% AUC to SO35-hIgG1” value was 71.1%, the “% AUC to parental Ab” value is 98.7% and the “% IC50 to COM701-hIgG4” value amounted to 115%. Besides, the “% IC50 to SO35-hIgG1” value was determined as 89.1% and the “% IC50 to parental Ab” value was 98.4%.
B5: the “% AUC to COM701-hIgG4” value amounted to 126%, the “% AUC to SO35-hIgG1” value is 74.1%, the “% AUC to parental Ab” value was found to be 103% and the “% IC50 to COM701-hIgG4” value amounted to 130%. Besides, the “% IC50 to SO35-hIgG1” value worked out at 101% and the “% IC50 to parental Ab” value stood at 111%.
In the case of B6, the “% AUC to COM701-hIgG4” value worked out at 112%, the “% AUC to SO35-hIgG1” value was 66%, the “% AUC to parental Ab” value stood at 91.6% and the “% IC50 to COM701-hIgG4” value came to 118%. The “% IC50 to SO35-hIgG1” value worked out at 91.7% and the “% IC50 to parental Ab” value was 101%.
On to B7, for which the “% AUC to COM701-hIgG4” value turned out to be 122%, the “% AUC to SO35-hIgG1” value is 72.1%, the “% AUC to parental Ab” value was 100% and the “% IC50 to COM701-hIgG4” value is 117%. Also, the “% IC50 to SO35-hIgG1” value came out at 90.6% and the “% IC50 to parental Ab” value came to 100%.
B8: the “% AUC to COM701-hIgG4” value was 125%, the “% AUC to SO35-hIgG1” value worked out at 73.5%, the “% AUC to parental Ab” value amounted to 102% and the “% IC50 to COM701-hIgG4” value is 120%. Besides, the “% IC50 to SO35-hIgG1” value is 93% and the “% IC50 to parental Ab” value amounted to 103%.
For B9, the “% AUC to COM701-hIgG4” value worked out at 132%, the “% AUC to SO35-hIgG1” value came to 77.7%, the “% AUC to parental Ab” value came out at 108% and the “% IC50 to COM701-hIgG4” value worked out at 122%. For the same molecule, the “% IC50 to SO35-hIgG1” value was found to be 94.7% and the “% IC50 to parental Ab” value was 105%.
